According to patent publication US20120316071A1 (published 2012):

What was measured:
[1] = target: T1, Recombinant Human DLL4 (delta-like protein 4) (human, UniProt Q9NR61 27-524); assay: ECL (Meso Scale Discovery) binding assay on immobilised recombinant human DLL4; Fab concentration not given
T1 construct: Bought recombinant protein (R&D Systems Cat#1506-D4/CF); also called rHuman DLL4; Delta-like 4

[2] = target: T2, Recombinant Human DLL4 (R&D Systems Cat#1506-D4/CF) (human, UniProt Q9NR61 27-524); assay: ELISA on coated DLL4, 100 nM Fab
T2 construct: Bought recombinant human DLL4; also called delta-like protein 4; rHuman DLL4

[3] = target: T2, Recombinant Human DLL4 (R&D Systems …); assay: ECL (MSD) binding assay, immobilised DLL4, 10 nM Fab;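 further: fab binding read as electrochemiluminescence via a TAG-labelled detection antibody, 1 h incubations at 20 °C, antigen signal compared with each well's blank, ratio of at least 4 scored as binder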
[4] = target: T3, Recombinant Human DLL4 (delta-like protein 4) (human, UniProt Q9NR61 27-524); assay: ELISA on coated DLL4, Fab at 25 nM (2-fold serial dilution)
T3 construct: also called rHuman DLL4; Delta-like 4

[5] = target: T3, Recombinant Human DLL4 (delta-like …); assay: ELISA on coated DLL4, Fab at 12.5 nM (2-fold serial dilution)
[6] = target: T3, Recombinant Human DLL4 (delta-like …); assay: ELISA on coated DLL4, Fab at 6.25 nM (2-fold serial dilution)
[7] = target: T3, Recombinant Human DLL4 (delta-like …); assay: ELISA on coated DLL4, Fab at 50 nM (2-fold serial dilution)
[8] = target: T3, Recombinant Human DLL4 (delta-like …); assay: ELISA on coated DLL4, Fab at 100 nM (2-fold serial dilution)
[9] = target: T3, Recombinant Human DLL4 (delta-like …); assay: ELISA on coated DLL4, Fab at 3.125 nM (2-fold serial dilution)

Binder	ECL signal [1]	ELISA signal [4]	ELISA signal [5]	ELISA signal [6]	ELISA signal [7]	ELISA signal [8]	ELISA signal [9]	other results
Fab VH5-51_IGHD5-18*01>3_IGHJ4*01 G100K/G104T (H:KT) & V3-4_IGLJ1*01 T78K (Fab, V domains shown, Fab with CH1 and lambda CL from the expression plasmids; also called G100K/G104T & T78K) VH: EVQLVQSGAEVKKPGESLKISCKGSGYSFTSYWIGWVRQMPGKGLEWMGIIYPGDSDTRYSPSFQGQVTISADKSISTAYLQWSSLKASDTAMYYCARRKYSYTYDYFDYWGQGTLVTVSS VL: QTVVTQEPSFSVSPGGTVTLTCGLSSGSVSTSYYPSWYQQTPGQAPRTLIYSTNTRSSGVPDRFSGSILGNKAALTIKGAQADDESDYYCVLYMGSGISYVFGTGTKVTVL	9620	–	–	–	–	–	–	–
Fab VH5-51_IGHD5-18*01>3_IGHJ4*01 G100K/G104T (H:KT) & V3-4_IGLJ1*01 T78L (Fab, V domains shown, Fab with CH1 and lambda CL from the expression plasmids; also called G100K/G104T & T78L) VH: EVQLVQSGAEVKKPGESLKISCKGSGYSFTSYWIGWVRQMPGKGLEWMGIIYPGDSDTRYSPSFQGQVTISADKSISTAYLQWSSLKASDTAMYYCARRKYSYTYDYFDYWGQGTLVTVSS VL: QTVVTQEPSFSVSPGGTVTLTCGLSSGSVSTSYYPSWYQQTPGQAPRTLIYSTNTRSSGVPDRFSGSILGNKAALTILGAQADDESDYYCVLYMGSGISYVFGTGTKVTVL	9550	–	–	–	–	–	–	–
Fab VH5-51_IGHD5-18*01>3_IGHJ4*01 G100K/G104T (H:KT) & V3-4_IGLJ1*01 S96R (Fab, V domains shown, Fab format: CH1 with His6 and Flag tags, and lambda CL, from the vectors; also called G100K/G104T & S96R) VH: EVQLVQSGAEVKKPGESLKISCKGSGYSFTSYWIGWVRQMPGKGLEWMGIIYPGDSDTRYSPSFQGQVTISADKSISTAYLQWSSLKASDTAMYYCARRKYSYTYDYFDYWGQGTLVTVSS VL: QTVVTQEPSFSVSPGGTVTLTCGLSSGSVSTSYYPSWYQQTPGQAPRTLIYSTNTRSSGVPDRFSGSILGNKAALTITGAQADDESDYYCVLYMGRGISYVFGTGTKVTVL	–	–	–	–	–	–	–	ELISA Signal [100 nM Fab] [2]: 0.02; ECL Signal [10 nM Fab] [3]: 54300
Fab VH5-51_IGHD5-18*01>3_IGHJ4*01 G100K/G104T S28R & V3-4_IGLJ1*01 (Fab, V domains shown, Fab; also called H:KT S28R & L:parent; H:KT S28R & L:wt) VH: EVQLVQSGAEVKKPGESLKISCKGSGYRFTSYWIGWVRQMPGKGLEWMGIIYPGDSDTRYSPSFQGQVTISADKSISTAYLQWSSLKASDTAMYYCARRKYSYTYDYFDYWGQGTLVTVSS VL: QTVVTQEPSFSVSPGGTVTLTCGLSSGSVSTSYYPSWYQQTPGQAPRTLIYSTNTRSSGVPDRFSGSILGNKAALTITGAQADDESDYYCVLYMGSGISYVFGTGTKVTVL	–	0.365	0.309	0.303	0.456	0.529	0.246	–
Fab VH5-51_IGHD5-18*01>3_IGHJ4*01 G100K/G104T G24L & V3-4_IGLJ1*01 (Fab, V domains shown, Fab; also called H:KT G24L & L:parent) VH: EVQLVQSGAEVKKPGESLKISCKLSGYSFTSYWIGWVRQMPGKGLEWMGIIYPGDSDTRYSPSFQGQVTISADKSISTAYLQWSSLKASDTAMYYCARRKYSYTYDYFDYWGQGTLVTVSS VL: QTVVTQEPSFSVSPGGTVTLTCGLSSGSVSTSYYPSWYQQTPGQAPRTLIYSTNTRSSGVPDRFSGSILGNKAALTITGAQADDESDYYCVLYMGSGISYVFGTGTKVTVL	–	0.221	0.233	0.278	0.245	0.298	0.257	–

Now from value to binder, other results behind:

ECL signal [1]	ELISA signal [4]	ELISA signal [5]	ELISA signal [6]	ELISA signal [7]	ELISA signal [8]	ELISA signal [9]	Binder	other results
9830	–	–	–	–	–	–	Fab VH5-51_IGHD5-18*01>3_IGHJ4*01 G100K/G104T (H:KT) & V3-4_IGLJ1*01 T78V (Fab, V domains shown, Fab with CH1 and lambda CL from the expression plasmids; also called G100K/G104T & T78V) VH: EVQLVQSGAEVKKPGESLKISCKGSGYSFTSYWIGWVRQMPGKGLEWMGIIYPGDSDTRYSPSFQGQVTISADKSISTAYLQWSSLKASDTAMYYCARRKYSYTYDYFDYWGQGTLVTVSS VL: QTVVTQEPSFSVSPGGTVTLTCGLSSGSVSTSYYPSWYQQTPGQAPRTLIYSTNTRSSGVPDRFSGSILGNKAALTIVGAQADDESDYYCVLYMGSGISYVFGTGTKVTVL	–
10600	–	–	–	–	–	–	Fab VH5-51_IGHD5-18*01>3_IGHJ4*01 G100K/G104T (H:KT) & V3-4_IGLJ1*01 T78E (Fab, V domains shown, Fab with CH1 and lambda CL from the expression plasmids; also called G100K/G104T & T78E) VH: EVQLVQSGAEVKKPGESLKISCKGSGYSFTSYWIGWVRQMPGKGLEWMGIIYPGDSDTRYSPSFQGQVTISADKSISTAYLQWSSLKASDTAMYYCARRKYSYTYDYFDYWGQGTLVTVSS VL: QTVVTQEPSFSVSPGGTVTLTCGLSSGSVSTSYYPSWYQQTPGQAPRTLIYSTNTRSSGVPDRFSGSILGNKAALTIEGAQADDESDYYCVLYMGSGISYVFGTGTKVTVL	–
–	0.22	0.23	0.249	0.209	0.253	0.244	Fab VH5-51_IGHD5-18*01>3_IGHJ4*01 G100K/G104T T58A & V3-4_IGLJ1*01 (Fab, V domains shown, Fab; also called H:KT T58A & L:parent) VH: EVQLVQSGAEVKKPGESLKISCKGSGYSFTSYWIGWVRQMPGKGLEWMGIIYPGDSDARYSPSFQGQVTISADKSISTAYLQWSSLKASDTAMYYCARRKYSYTYDYFDYWGQGTLVTVSS VL: QTVVTQEPSFSVSPGGTVTLTCGLSSGSVSTSYYPSWYQQTPGQAPRTLIYSTNTRSSGVPDRFSGSILGNKAALTITGAQADDESDYYCVLYMGSGISYVFGTGTKVTVL	–
